Data published in patent US20030171289A1 (INSTITUT PASTEUR, published 2003).

B1: synthetic peptide V1 (ATWLPPR) (peptide)
peptide: ATWLPPR
notes: Synthetic peptide (Neosystem); also called V1 peptide
B2: phage-displayed peptide V3 (M13 phage clone) (peptide)
chain: ANLFKAK
notes: not shown: M13 phage coat protein of the Ph.D.-7 library
B3: phage-displayed peptide V5 (M13 phage clone) (peptide)
chain: ILDNYKL
notes: as for B2
B4: phage-displayed peptide V2 (M13 phage clone) (peptide)
chain: NPRALNY
notes: as for B2
B5: phage-displayed peptide V7 (M13 phage clone) (peptide)
chain: YAIMPLV
notes: as for B2
B6: phage-displayed peptide V6 (M13 phage clone) (peptide)
chain: LPPNPTK
notes: as for B2
B7: phage-displayed peptide V4 (M13 phage clone) (peptide)
chain: YHSSFQA
notes: as for B2
B8: phage-displayed peptide K2 (M13 phage clone) (peptide)
chain: WPTPPYA
notes: as for B2
B9: phage-displayed peptide K5 (M13 phage clone) (peptide)
chain: HSSLQTP
notes: as for B2
B10: phage-displayed peptide K3 (M13 phage clone) (peptide)
chain: TPHNTVS
notes: as for B2
B11: phage-displayed peptide K6 (M13 phage clone) (peptide)
chain: YSIPKSS
notes: as for B2
B12: phage-displayed peptide K7 (M13 phage clone) (peptide)
chain: ALQPRYL
notes: as for B2
B13: phage-displayed peptide K1 (M13 phage clone) (peptide)
chain: YLTMPTP
notes: as for B2
B14: phage-displayed peptide K4 (M13 phage clone) (peptide)
chain: SLPAHAR
notes: as for B2

Each binder was assayed against T1, KDR (kinase domain receptor, VEGFR-2) expressed on cells (UniProt P35968 20-1356, limits assumed) (assay: displacement of 125I-VEGF165 from CHO-KDR cells).
T1 construct: whole, on cells; The same molecule is used for KDR on CHO-KDR cells and for VEGF-R2 on HUV-EC cells; the cells are named under assay; also called KDR/Flk-1; VR2
T1 sequence (P35968 20-1356 limits assumed): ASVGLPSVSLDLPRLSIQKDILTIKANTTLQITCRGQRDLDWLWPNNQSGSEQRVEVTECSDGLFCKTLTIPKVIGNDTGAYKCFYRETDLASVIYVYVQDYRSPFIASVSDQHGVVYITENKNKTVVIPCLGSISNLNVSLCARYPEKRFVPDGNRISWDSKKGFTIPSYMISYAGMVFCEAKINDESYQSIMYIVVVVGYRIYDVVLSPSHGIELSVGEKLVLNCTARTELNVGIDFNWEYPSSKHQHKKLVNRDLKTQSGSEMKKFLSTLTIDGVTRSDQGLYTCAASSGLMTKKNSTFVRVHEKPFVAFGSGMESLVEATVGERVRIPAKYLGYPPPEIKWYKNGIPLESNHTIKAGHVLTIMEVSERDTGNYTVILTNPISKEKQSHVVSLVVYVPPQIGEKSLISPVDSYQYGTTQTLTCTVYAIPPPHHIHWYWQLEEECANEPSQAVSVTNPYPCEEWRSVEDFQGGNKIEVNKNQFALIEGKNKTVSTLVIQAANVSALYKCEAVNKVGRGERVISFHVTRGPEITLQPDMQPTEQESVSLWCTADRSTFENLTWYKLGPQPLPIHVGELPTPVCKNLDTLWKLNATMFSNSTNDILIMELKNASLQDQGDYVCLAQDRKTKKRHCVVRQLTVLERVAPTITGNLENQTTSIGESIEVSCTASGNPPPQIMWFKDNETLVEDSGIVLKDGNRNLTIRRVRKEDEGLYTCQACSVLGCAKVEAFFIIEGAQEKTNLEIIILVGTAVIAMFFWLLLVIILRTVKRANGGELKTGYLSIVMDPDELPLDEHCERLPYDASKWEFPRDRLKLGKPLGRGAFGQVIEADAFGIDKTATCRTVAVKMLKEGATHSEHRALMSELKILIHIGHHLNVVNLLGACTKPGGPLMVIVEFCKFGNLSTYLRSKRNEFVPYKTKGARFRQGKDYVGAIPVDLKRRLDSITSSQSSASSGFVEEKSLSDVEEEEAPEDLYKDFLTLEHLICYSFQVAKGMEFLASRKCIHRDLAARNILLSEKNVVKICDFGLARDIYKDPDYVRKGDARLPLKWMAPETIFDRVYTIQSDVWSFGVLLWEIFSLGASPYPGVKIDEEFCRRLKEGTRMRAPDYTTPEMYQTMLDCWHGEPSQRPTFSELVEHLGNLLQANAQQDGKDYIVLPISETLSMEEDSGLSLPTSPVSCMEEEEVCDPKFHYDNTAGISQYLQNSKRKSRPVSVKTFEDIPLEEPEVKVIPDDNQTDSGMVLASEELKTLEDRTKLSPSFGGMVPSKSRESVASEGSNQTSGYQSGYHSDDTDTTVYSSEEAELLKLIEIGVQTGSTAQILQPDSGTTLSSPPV

Binder	Efficiency (% Emax)
AAWLPPR (Ala scan analogue of ATWLPPR (V1)) [V1 analogue A2]	61
ATALPPR (Ala scan analogue of ATWLPPR (V1)) [V1 analogue A3]	70
ATWAPPR (Ala scan analogue of ATWLPPR (V1)) [V1 analogue A4]	31
ATWLAPR (Ala scan analogue of ATWLPPR (V1)) [V1 analogue A5]	65
ATWLPAR (Ala scan analogue of ATWLPPR (V1)) [V1 analogue A6]	84
B1	100

These binders were tested against T1, KDR (kinase domain receptor, VEGFR-2) … (assay: competition with 125I-VEGF for binding to CHO-KDR cells).
Protocol: (§1) Competition assay of binding to CHO-KDR cells. CHO-KDR cells were seeded in 24-well plates at a density of 5×10⁵ cells/well. After 24 h, subconfluent plates were transferred at 4 C, and all subsequent operations were done at 4 C. […] After 3 h, cells were washed five times with binding buffer and solubilized by the addition of 0.5 M NaOH.

Binder	IC50 [µM]
B1	~80

Each binder was assayed against T1, KDR (kinase domain receptor, VEGFR-2) … (assay: phage ELISA on fixed CHO-KDR cells).
Protocol: (§2) Exponentially growing CHO-KDR cells were seeded in 96-well microtiter plates at 7×10⁴ cells/well and left overnight at 37 C. Cells were fixed with paraformaldehyde (4% in PBS) for 15 min at room temperature and washed with PBS. Wells were then filled with PBS-Glycine 0.2%, kept for 15 min at room temperature and then washed with PBS. Phage particles (10¹² or 10¹³/ml) were added to each well and incubated 2 h at room temperature. Wells were washed with PBS and the amount of bound phage was detected with peroxidase-conjugated anti-M13 phage serum (Pharmacia Biotech, Uppsala, Sweden).

Binder	binding result
B2	binds
B3	binds
B4	binds
B5	binds
B6	binds
B7	binds

Each binder was assayed against T1, KDR (kinase domain receptor, VEGFR-2) … (assay: phage ELISA on CHO-KDR cells, 10^13 pfu/ml).
Protocol: Results are representative of three independent assays.
as §2

Binder	binding result
B8	binds
B9	binds
B10	binds
B11	binds
B12	binds
B13	binds
B14	binds

Biological target: T1, KDR (kinase domain receptor, VEGFR-2) …
Assay: displacement of 125I-VEGF165 from CHO-KDR cells
Remark: another data set of the same source

Binder	factor by which the inhibitory efficiency is lowered against V1 [fold]
AAAAAAR (position 1 is already alanine) [V1 analogue A11 (the 6 amino acids upstream to arginine substituted by alanine)]	10

Each binder was assayed against T2, neuropilin 1 (UniProt O14786 22-923, limits assumed) (assay: displacement of 125I-VEGF165 from MDA-MB 231 cells (neuropilin 1, no VEGF-R2)).
T2 construct: whole, on cells; also called NP 1; NP1
T2 sequence (O14786 22-923 limits assumed): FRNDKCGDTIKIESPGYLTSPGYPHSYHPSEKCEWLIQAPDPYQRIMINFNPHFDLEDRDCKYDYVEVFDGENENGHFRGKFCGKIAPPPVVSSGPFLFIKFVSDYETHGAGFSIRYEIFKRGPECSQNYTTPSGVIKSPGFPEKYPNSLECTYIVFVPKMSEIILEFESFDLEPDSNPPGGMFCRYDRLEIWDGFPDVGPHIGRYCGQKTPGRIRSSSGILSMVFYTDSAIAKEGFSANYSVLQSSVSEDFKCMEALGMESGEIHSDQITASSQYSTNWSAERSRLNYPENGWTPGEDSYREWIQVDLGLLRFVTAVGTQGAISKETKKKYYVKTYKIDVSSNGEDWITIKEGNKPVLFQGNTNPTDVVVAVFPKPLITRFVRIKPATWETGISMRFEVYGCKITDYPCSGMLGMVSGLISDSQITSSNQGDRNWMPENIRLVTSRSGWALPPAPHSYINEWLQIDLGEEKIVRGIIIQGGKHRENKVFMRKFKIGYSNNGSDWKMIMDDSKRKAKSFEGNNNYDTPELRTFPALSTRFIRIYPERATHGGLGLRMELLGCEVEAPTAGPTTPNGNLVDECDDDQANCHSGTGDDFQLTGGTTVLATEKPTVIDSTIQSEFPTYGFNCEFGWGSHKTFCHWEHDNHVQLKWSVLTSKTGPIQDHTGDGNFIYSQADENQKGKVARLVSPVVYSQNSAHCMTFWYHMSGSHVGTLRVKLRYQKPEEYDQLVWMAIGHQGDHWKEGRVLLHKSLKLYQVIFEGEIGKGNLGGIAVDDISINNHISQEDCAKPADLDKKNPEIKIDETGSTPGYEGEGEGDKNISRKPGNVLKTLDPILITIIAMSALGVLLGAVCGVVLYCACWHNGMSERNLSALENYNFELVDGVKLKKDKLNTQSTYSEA

Binder	IC50 [µg/mL]
B1	38

What follows are binders tested against T1, KDR (kinase domain receptor, VEGFR-2) … (assay: competition with 125I-VEGF for binding to CHO-KDR cells, fixed peptide concentration).
Protocol: as §1

Binder	binding result
SLPAHAR (Synthetic peptide (Neosystem)) [synthetic peptide K4 (SLPAHAR)]	binds

What follows are binders tested against T1, KDR (kinase domain receptor, VEGFR-2) … (assay: displacement of 125I-VEGF165 from CHO-KDR cells, curve fitting (CI50)).

Binder	IC50 [µM]
AAWLPPR (Ala scan analogue of ATWLPPR (V1)) [V1 analogue A2]	30.9
ATALPPR (Ala scan analogue of ATWLPPR (V1)) [V1 analogue A3]	26.8
ATWAPPR (Ala scan analogue of ATWLPPR (V1)) [V1 analogue A4]	60.7
ATWLAPR (Ala scan analogue of ATWLPPR (V1)) [V1 analogue A5]	29.1
ATWLPAR (Ala scan analogue of ATWLPPR (V1)) [V1 analogue A6]	22.4
B1	18.8
